# T1: Endogenous NAPA (human (endogenous in HEK 293), UniProt P54920 1-295)
# T1 construct: NSF attachment protein alpha, endogenous in HEK 293 cells; also called NSF attachment protein alpha; source: endogenous, HEK AC5/D2L cell lysate
# T1 sequence (looked up): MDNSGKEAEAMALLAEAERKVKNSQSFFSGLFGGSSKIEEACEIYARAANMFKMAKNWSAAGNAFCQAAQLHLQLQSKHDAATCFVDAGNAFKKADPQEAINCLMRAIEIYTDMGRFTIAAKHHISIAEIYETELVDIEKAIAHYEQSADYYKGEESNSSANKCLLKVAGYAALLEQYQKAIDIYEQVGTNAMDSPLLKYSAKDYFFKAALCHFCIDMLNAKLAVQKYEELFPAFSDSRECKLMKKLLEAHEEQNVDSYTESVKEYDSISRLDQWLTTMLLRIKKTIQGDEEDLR
# B1: human AC type 5 (in HEK-AC5/D2L cells) (enzyme)
# chain: not shown
# notes: adenylyl cyclase type 5 (AC5), human; Found in the immunoprecipitates by its adenylyl cyclase activity, not by a blot; also called adenylyl cyclase type 5; source: HEK 293 cells stably expressing human D2L and human AC5 (HEK-AC5/D2L), in lysate
# Columns and labels:
# Endogenous PPP2CB = target: T2, Endogenous PPP2CB (human (endogenous in HEK 293), UniProt P62714 1-309); experiment: co-IP; endogenous PPP2CB or NAPA immunoprecipitated with its antibody and protein A agarose from HEK AC5/D2L cell lysate (0.5% C12E10, 150 mM NaCl, pH 7.5); AC activity measured in the immunoprecipitate with activated Gαs and FSK; cells under vehicle conditions (PPP2CB) or treated overnight with quinpirole (NAPA); settings: partners not purified
# T2 construct: protein phosphatase 2A catalytic subunit beta, endogenous in HEK 293 cells; also called protein phosphatase 2A (PP2A) catalytic subunit; source: endogenous, HEK AC5/D2L cell lysate
# T2 sequence (P62714 whole entry): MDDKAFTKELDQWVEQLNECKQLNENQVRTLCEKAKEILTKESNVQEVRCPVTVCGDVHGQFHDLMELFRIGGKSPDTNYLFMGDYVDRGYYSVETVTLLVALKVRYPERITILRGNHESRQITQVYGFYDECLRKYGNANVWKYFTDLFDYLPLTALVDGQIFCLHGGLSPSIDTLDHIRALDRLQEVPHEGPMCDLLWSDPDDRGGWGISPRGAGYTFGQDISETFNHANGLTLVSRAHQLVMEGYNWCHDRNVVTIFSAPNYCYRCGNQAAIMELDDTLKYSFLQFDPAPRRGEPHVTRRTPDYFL
# Endogenous NAPA = target: T1, Endogenous NAPA; experiment: as above; settings: partners not purified
binder,measurement,setting,value
B1,fold AC activity in the immunoprecipitate against the control,Endogenous PPP2CB,4 fold
same,fold AC activity in the immunoprecipitate against the vehicle-treated group,Endogenous NAPA,4.5 fold

# From publication PMC6912275, “Identification of Novel Adenylyl Cyclase 5 (AC5) Signaling Networks in D1 and D2 Medium Spiny Neurons using Bimolecular Fluorescence Complementation Screening” (Cells, 2019)
